Test results: publication PMC8757827, “A Novel Regulation of K-antigen Capsule Synthesis in Porphyromonas gingivalis Is Driven by the Response Regulator PG0720-Directed Antisense RNA”

T1: PG0720 response regulator (Porphyromonas gingivalis W83) (UniProt Q7MWB1)
T1 sequence: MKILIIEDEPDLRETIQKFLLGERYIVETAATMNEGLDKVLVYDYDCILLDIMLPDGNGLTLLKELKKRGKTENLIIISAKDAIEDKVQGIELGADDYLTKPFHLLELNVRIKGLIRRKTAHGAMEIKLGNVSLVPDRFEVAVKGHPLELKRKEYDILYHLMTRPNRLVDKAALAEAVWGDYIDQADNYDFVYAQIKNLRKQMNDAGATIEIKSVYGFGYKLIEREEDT

T2: PG0720 response regulator (Porphyromonas gingivalis W83, UniProt Q7MWB1 1-229)
T2 sequence: T1 sequence

B1: 77-bp region (77bpIR2) (dsDNA)
DNA 1: ATTCGCACTTGTTTGATAATTGAATGTAGCAATCATGAGATCTATAAGTGTGTAACGGTTCAAATGCGATTGTCCTG
DNA 2: CAGGACAATCGCATTTGAACCGTTACACACTTATAGATCTCATGATTGCTACATTCAATTATCAAACAAGTGCGAAT

Experiments:
[1] = target: T1, PG0720 response regulator (Porphyromonas gingivalis W83); assay: EMSA; details: 10 mM HEPES pH 7.8, 50 mM KCl, 5 mM MgCl2, 1 mM DTT, 1 mM EDTA, 1 ug poly(dI-dC), 1 ug BSA, 10% glycerol, 20 mM acetyl phosphate, room temperature 30 min …
[2] = target: T1, PG0720 response regulator (Porphyromonas gingivalis W83); assay: DNase I footprinting; details: 10 mM HEPES pH 7.8, 50 mM KCl, 5 mM MgCl2, 1 mM DTT, 1 mM EDTA, 1 ug poly(dI-dC), 1 ug BSA, 10% glycerol, 20 mM acetyl phosphate, room temperature 30 min …
[3] = target: T2, PG0720 response regulator; assay: EMSA; 20 mM acetyl phosphate; 5 mM Mg2+; up to 140 pmol protein, 3 fmol DNA; 10 mM HEPES pH 7.8, 50 mM KCl, 5 mM MgCl2, 1 mM DTT, 1 mM EDTA, 1 ug poly(dI-dC), 1 ug BSA, 10% glycerol, 20 mM acetyl phosphate, room temperature 30 min, 10 ul (50 ul for footprinting); details: protein: recombinant; tags: none (N-His-SUMO removed by SUMO Express protease); chain copies: 2; label: 5' biotin; blunt

Row | Molecule | binding [1] | other results
1 | ACACATCACAACAATATCTTCAATAACATACCCCACATCCGCCCGTCTTCACTACGATCTAAATAAAATTTCCCCAATGACAAAACCGCCTTATTTTAAAAATTACACATAACAGAAAAAAGAGTGATTCTCATTATACTTTCTTTGACAATCAAATCCTTTCAACGATGATTTTTGAGACCCTAATAGAGCGCAAAGGTAATTAATTATCGTCTATATTCCTAAATCCCAGTGGAATGATTCAGGAC (double strand) [PG0106 upstream promoter 248-bp] | no binding | 
2 | CAAACAAGTGCGAATCCATATGTCAGAGATTCAAATCATAGAGGAAAGAGACTAAAAATTTTCAAACGCGATCGCCCTGACAGGCTACCCCCGGGGT (double strand) [asSuGR promoter 97-bp footprint probe] |  | binding [2]: binds
3 | TGTCAGGGCGATCGCGTTTGAAAATTTTTAGTCTCTTTCCTCTATGATTTGAATCTCTGACATATGG (double strand) [asSuGR promoter 67-bp] | binds | 
4 | TGTCAGGGCGATCGCGTTTGAAAATTTTTAGTCTCTTTCCTCTATGATTTGAATCTCTGACATATGGATTCGCACTTGTTTGATAATTGAATGTAGCAATCATGAGATCTATAAGTGTGTAACGGTTCAAATGCGATTGTCCTGAATCATTCCA (double strand) [asSuGR promoter 154-bp] | binds | 
5 | B1 |  | binding result [3]: no binding
